Experimental data taken from patent US20230192896A1 (BIOVERATIV THERAPEUTICS, published 2023).
Substitutions are numbered along the chain they refer to.

B1: BIIB-9-882 (antibody, V domains shown)
VH: QVQLVQSGAEVKKPGASVKVSCKASGYTFTSYYMHWVRQAPGQGLEWMGIINPSGGSTSYAQKFQGRVTMTRDTSTSTVYMELSSLRSEDTAVYYCARGPTDSSGYLDMDVWGKGTTVTVSS
VL: EIVMTQSPATLSVSPGERATLSCRASQSVSSNLAWYQQKPGQAPRLLIFGASTRATGIPARFSGSGSGTEFTLTISSLQSEDFAVYYCQQHDNFPPTFGGGTKVEIK
notes: IgG
B2: BIIB-9-888 (antibody, V domains shown)
VH: B1 VH
VL: B1 VL with F49Y, S80P, H91A, D92F, F94W
notes: IgG
B3: BIIB-9-445 (antibody, V domains shown)
VH: QVQLVQSGAEVKKPGASVKVSCKASGYTFTSYYIHWVRQAPGQGLEWMGIINPSGGSTSYAQKFQGRVTMTRDTSTSTVYMELSSLRSEDTAVYYCARDVGQDYWFDLWGRGTLVTVSS
VL: B1 VL with F49Y, G50S, H91Y, P96F
notes: IgG
B4: BIIB-9-1264 (antibody, V domains shown)
VH: QVQLVQSGAEVKKPGASVKVSCKASGYTFTSYYMHWVRQAPGQGLEWMGIINPSGGSTSYAQKFQGRVTMTRDTSTSTVYMELSSLRSEDTAVYYCARDGDSSVYAFDYWGQGTLVTVSS
VL: DIQMTQSPSSLSASVGDRVTITCQASQDITNYLNWYQQKPGKAPKLLIYDASNLETGVPSRFSGSGSGTDFTFTISSLQPEDIATYYCQQVDDYPFTFGGGTKVEIK
notes: IgG
B5: BIIB-9-1267 (antibody, V domains shown)
VH: B4 VH with G100H, D101G, S102W, S103A, V104I, A106G, F107M, Y109V, L115T
VL: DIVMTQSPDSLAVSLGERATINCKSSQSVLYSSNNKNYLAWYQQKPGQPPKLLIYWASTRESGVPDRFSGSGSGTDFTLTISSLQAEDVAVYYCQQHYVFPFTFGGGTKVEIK
notes: IgG
B6: BIIB-9-446 (antibody, V domains shown)
VH: QVQLVQSGAEVKKPGSSVKVSCKASGGTFSSYAISWVRQAPGQGLEWMGGIIPIFGTASYAQKFQGRVTITADESTSTAYMELSSLRSEDTAVYYCARGLEVGYYGYFDYWGQGTLVTVSS
VL: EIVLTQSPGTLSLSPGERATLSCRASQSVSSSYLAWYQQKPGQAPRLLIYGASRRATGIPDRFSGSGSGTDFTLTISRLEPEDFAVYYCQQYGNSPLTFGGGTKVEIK
notes: IgG
B7: BIIB-9-615 (antibody, V domains shown)
VH: QVQLVQSGAEVKKPGASVKVSCKASGYTFTSYYMHWVRQAPGQGLEWMGIINPSGGSTSYAQKFQGRVTMTRDTSTSTVYMELSSLRSEDTAVYYCARDSPSSSSYWSLDLWGRGTLVTVSS
VL: EIVLTQSPATLSLSPGERATLSCRASQSVSSYLAWYQQKPGQAPRLLIYDASNRATGIPARFSGSGSGTDFTLTISSLEPEDFAVYYCQQSCHWPWTFGGGTKVEIK
notes: IgG
B8: BIIB-9-1268 (antibody, V domains shown)
VH: B3 VH with I34M, V100P, G101P, Q102S, D103W, W105V, L108I, R111Q, L114M
VL: B7 VL with L4M, S91A, C92T, H93V, W96F
notes: IgG
B9: BIIB-9-1270 (antibody, V domains shown)
VH: QVQLVQSGAEVKKPGASVKVSCKASGYTFTSYYMHWVRQAPGQGLEWMGIINPSGGSTSYAQKFQGRVTMTRDTSTSTVYMELSSLRSEDTAVYYCARDTGGYAFDIWGQGTLVTVSS
VL: B7 VL with C92A, H93D, W94F, W96F
notes: IgG
B10: BIIB-9-1271 (antibody, V domains shown)
VH: B9 VH
VL: B1 VL with F49Y, E70D, S80P, V85T, H91G, D92F, N93S, P96F
notes: IgG
B11: BIIB-9-1273 (antibody, V domains shown)
VH: B9 VH
VL: B7 VL with S7Y, C92A, H93N, W94F, W96F
notes: IgG
B12: BIIB-9-568 (antibody, V domains shown)
VH: QLQLQESGPGLVKPSETLSLTCTVSGGSISSSSYYWGWIRQPPGKGLEWIGSIYYSGSTYYNPSLKSRVTISVDTSKNQFSLKLSSVTAADTAVYYCARDLGYAATYFDLWGRGTLVTVSS
VL: DIQMTQSPSSLSASVGDRVTITCQASQDISNYLNWYQQKPGKAPKLLIYDASNLETGVPSRFSGSGSGTDFTFTISSLQPEDIATYYCQQYDDYLTFGGGTKVEIK
notes: IgG
B13: BIIB-9-889 (antibody, V domains shown)
VH: B12 VH with L101V, Y103W, A104Y, A105T, T106E
VL: B1 VL with F49Y, H91A, D92F, F94W
notes: IgG
B14: BIIB-9-433 (antibody, V domains shown)
VH: B12 VH with S33R, L101A, A104S, T106E, Y107L, L110Y, R113Q
VL: B7 VL with C92S, H93A, W94Y, W96P
notes: IgG
B15: BIIB-9-1276 (antibody, V domains shown)
VH: B12 VH with L101V, Y103R, A104T, A105Y, T106E, Y107L, L110I, R113Q, L116M
VL: DIQMTQSPSSVSASVGDRVTITCRASQGISSWLAWYQQKPGKAPKLLIYAASSLQSGVPSRFSGSGSGTDFTLTISSLQPEDFATYYCQQGNSFPITFGGGTKVEIK
notes: IgG
B16: BIIB-9-1265 (antibody, V domains shown)
VH: B12 VH with L101G, G102R, Y103H, A104Y, A105Y, T106E, Y107L, L110Y, R113Q
VL: B15 VL
notes: IgG
B17: BIIB-9-886 (antibody, V domains shown)
VH: QVQLVQSGAEVKKPGASVKVSCKASGYTFTSYYMHWVRQAPGQGLEWMGIINPSGGSTSYAQKFQGRVTMTRDTSTSTVYMELSSLRSEDTAVYYCARDPAHSYLDAFDIWGQGTMVTVSS
VL: B15 VL with G91A, N92S, I96F
notes: IgG
B18: BIIB-9-625 (antibody, V domains shown)
VH: QLQLQESGPGLVKPSETLSLTCTVSGGSISSSSYAWGWIRQPPGKGLEWIGSIYYSGSTYYNPSLKSRVTISVDTSKNQFSLKLSSVTAADTAVYYCARDRGWYTEVLDIWGQGTMVTVSS
VL: B15 VL with V11L, G28S, W32Y, A34N, G91S, N92D, S93T, F94D, I96P
notes: IgG
B19: BIIB-9-1269 (antibody, V domains shown)
VH: B3 VH with I34M, V100R, D103Y, W105H
VL: B15 VL with T20A, G91A, N92S, I96F
notes: IgG
B20: BIIB-9-887 (antibody, V domains shown)
VH: QVQLVQSGAEVKKPGASVKVSCKASGYTFTSYYMVWVRQAPGQGLEWMGIINPSGGSTSYAQKFQGRVTMTRDTSTSTVYMELSSLRSEDTAVYYCARDAEAHWIPGMDVWGQGTTVTVSS
VL: B15 VL with G91A, N92S, I96F
notes: IgG
B21: BIIB-9-628 (antibody, V domains shown)
VH: QVQLVQSGAEVKKPGASVKVSCKASGYTFTSYYMHWVRQAPGQGLEWMGIINPSGGSTSYAQKFQGRVTMTRDTSTSTVYMELSSLRSEDTAVYYCAREPIAYGATLDLWGRGTLVTVSS
VL: EIVLTQSPGTLSLSPGERATLSCRASQSVSSDYLAWYQQKPGQAPRLLIYGASSRATGIPDRFSGSGSGTDFTLTISRLEPEDFAVYYCQQYVVFPFTFGGGTKVEIK
notes: IgG
B22: BIIB-9-884 (antibody, V domains shown)
VH: QLQLQESGPGLVKPSETLSLTCTVSGGSISSSDYYWGWIRQPPGKGLEWIGSIYYSGSTYYNPSLKSRVTISVDTSKNQFSLKLSSVTAADTAVYYCARSPRHKVRGPNWFDPWGQGTLVTVSS
VL: B21 VL with D32S, V93H, V94L, F95L, F97P
notes: IgG
B23: BIIB-9-470 (antibody, V domains shown)
VH: EVQLVESGGGLVQPGGSLRLSCAASGFTFSSYWMSWVRQAPGKGLEWVANIKQDGSEKYYVDSVKGRFTISRDNAKNSLYLQMNSLRAEDTAVYYCARDAGIAWALDYWGQGTLVTVS
VL: DIQMTQSPSTLSASVGDRVTITCRASQSISSWLAWYQQKPGKAPKLLIYKASSLESGVPSRFSGSGSGTEFTLTISSLQPDDFATYYCQHPHSWTFGGGTKVEIK
notes: IgG

Biological target: T1, free FIXa (activated Factor IX) (human, UniProt P00740 47-191; P00740 227-461)
T1 construct: BLI antigen bought from Haematologic Technologies (HCIXA-0050); also called factor IXa
Experiment: BLI; class meaning: paragraph 914

binding result	Binder
binds	B1
binds	B2
binds	B3
binds	B4
binds	B5
binds	B6
binds	B7
binds	B8
binds	B9
binds	B10
binds	B11
binds	B12
binds	B13
binds	B14
binds	B15
binds	B16
binds	B17
binds	B18
binds	B19
binds	B20
binds	B21
binds	B22
binds	B23

Biological target: T2, FIXa-SM (FIXa+EGR-CMK) (human, UniProt P00740 47-191; P00740 227-461, EGR-CMK (L-Glu-Gly-Arg chloromethyl ketone) covalently bound to the active site)
T2 construct: BLI antigen bought from Haematologic Technologies (HCIXA-EGR); also called FIXa with substrate mimic
Experiment: BLI; class meaning: paragraph 914

binding result	Binder
binds	B1
binds	B2
binds	B3
binds	B4
binds	B5
binds	B6
binds	B7
binds	B8
binds	B9
binds	B10
binds	B11
binds	B12
binds	B13
binds	B14
binds	B15
binds	B16
binds	B17
binds	B18
binds	B19
binds	B20
binds	B21
binds	B22
binds	B23
